Measured values from PMC10646254.

Assays:
[1] = biological target: SP1 (UniProt P08047); assay: co-immunoprecipitation, western blot; details: reference: wild type; sites T361,T366,S381,S387
[2] = biological target: SP3 (UniProt Q02447); assay: co-immunoprecipitation, western blot; details: reference: wild type; sites T361,T366,S381,S387

In the case of “ELK4 (from UniProt P28324) 4MA (T361/T366/S381/S387A)”, the “binding against the reference” value [1] is reported as “weaker” and the “binding against the reference” value [2] is reported as “weaker”.
